Source: article PMC5735676, “Leishmania braziliensis SCD6 and RBP42 proteins, two factors with RNA binding capacity”

Assays:
rLbRBP42 [1] = target: T1, rLbRBP42 (Leishmania braziliensis, UniProt A4HIP3 1-338); test: competition; vs 12.5 nM labeled N2; up to 8-fold (100 nM) cold RNA; EMSA: 10 mM HEPES pH 7.3, 20 mM KCl, 6 mM MgCl2, 1 mM DTT, 0.05% NP-40, 1 ug/ul heparin, 40 U RNaseOUT, room temperature 20 min, 6% native PAGE 0.5x TBE; pull-down at room temperature on His-tag Dynabeads, 1x pull-down buffer (composition not stated); conditions: protein: recombinant; tags: His tag (nickel column)
T1 sequence: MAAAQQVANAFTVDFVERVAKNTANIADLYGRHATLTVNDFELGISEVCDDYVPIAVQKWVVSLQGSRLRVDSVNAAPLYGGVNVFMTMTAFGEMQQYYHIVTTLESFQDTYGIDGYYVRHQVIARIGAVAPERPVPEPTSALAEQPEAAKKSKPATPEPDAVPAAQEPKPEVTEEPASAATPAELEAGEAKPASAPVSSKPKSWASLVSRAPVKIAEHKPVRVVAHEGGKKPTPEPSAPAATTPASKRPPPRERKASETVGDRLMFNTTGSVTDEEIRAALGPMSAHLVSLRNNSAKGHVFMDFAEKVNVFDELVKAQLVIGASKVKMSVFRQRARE

rLbSCD6 [2] = target: T2, rLbSCD6 (Leishmania braziliensis, UniProt A4HEG4 1-294); test: as above; conditions: protein: recombinant; tags: His tag (nickel column)
T2 sequence: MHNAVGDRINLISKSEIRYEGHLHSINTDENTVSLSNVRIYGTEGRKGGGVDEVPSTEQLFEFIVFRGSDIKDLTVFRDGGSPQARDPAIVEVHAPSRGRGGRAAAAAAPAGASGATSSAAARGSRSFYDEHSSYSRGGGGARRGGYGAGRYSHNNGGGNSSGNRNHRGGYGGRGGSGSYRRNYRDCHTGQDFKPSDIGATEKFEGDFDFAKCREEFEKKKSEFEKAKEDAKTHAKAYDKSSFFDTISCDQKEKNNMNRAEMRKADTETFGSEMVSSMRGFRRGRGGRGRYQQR

rLbSCD6 [3] = target: T2, rLbSCD6; test: EMSA; 6 mM Mg2+, heparin; 12.5 nM RNA; EMSA: 10 mM HEPES pH 7.3, 20 mM KCl, 6 mM MgCl2, 1 mM DTT, 0.05% NP-40, 1 ug/ul heparin, 40 U RNaseOUT, room temperature 20 min, 6% native PAGE 0.5x TBE; pull-down at room temperature on His-tag Dynabeads, 1x pull-down buffer (composition not stated); conditions: protein: recombinant; tags: His tag (nickel column); label: 5' digoxigenin
rLbRBP42 [4] = target: T1, rLbRBP42; test: EMSA; 6 mM Mg2+, heparin; 3 pM protein, 12.5 nM RNA; EMSA: 10 mM HEPES pH 7.3, 20 mM KCl, 6 mM MgCl2, 1 mM DTT, 0.05% NP-40, 1 ug/ul heparin, 40 U RNaseOUT, room temperature 20 min, 6% native PAGE 0.5x TBE; pull-down at room temperature on His-tag Dynabeads, 1x pull-down buffer (composition not stated); conditions: protein: recombinant; tags: His tag (nickel column); label: 5' digoxigenin
rLbRBP42 [5] = target: T1, rLbRBP42; test: competition; vs 12.5 nM labeled N2; decrease of complex only at 4-fold cold RNA; EMSA: 10 mM HEPES pH 7.3, 20 mM KCl, 6 mM MgCl2, 1 mM DTT, 0.05% NP-40, 1 ug/ul heparin, 40 U RNaseOUT, room temperature 20 min, 6% native PAGE 0.5x TBE; pull-down at room temperature on His-tag Dynabeads, 1x pull-down buffer (composition not stated); conditions: protein: recombinant; tags: His tag (nickel column)
rLbSCD6 [6] = target: T2, rLbSCD6; test: competition; vs 12.5 nM labeled N2; completely competed at 1-fold cold RNA; EMSA: 10 mM HEPES pH 7.3, 20 mM KCl, 6 mM MgCl2, 1 mM DTT, 0.05% NP-40, 1 ug/ul heparin, 40 U RNaseOUT, room temperature 20 min, 6% native PAGE 0.5x TBE; pull-down at room temperature on His-tag Dynabeads, 1x pull-down buffer (composition not stated); conditions: protein: recombinant; tags: His tag (nickel column)

B1: 3' UTR-II.1 antisense (ssRNA)
RNA: UACAGAAAAUAAAAAAACACACACAAAAUAUAAAAAGAGGAAAGCAUGAUU
binding result (rLbRBP42 [1]): no binding
binding result (rLbSCD6 [2]): no binding

B2: 3' UTR-II.1 motif (ssRNA)
RNA: AUGUCUUUUAUUUUUUUGUGUGUGUUUUAUAUUUUUCUCCUUUCGUACUAA
binding result (rLbSCD6 [3]): binds
binding result (rLbRBP42 [4]): binds

B3: 3' UTR-II.1 motif, cold (ssRNA)
RNA: B2 RNA
binding result (rLbRBP42 [5]): binds
binding result (rLbSCD6 [6]): binds
